Assay results reported in article PMC3147155.

Target: I95E mutant of the PAS-A domain of the Bacillus subtilis protein KinA (Bacillus subtilis)
Assay: AUC

In the case of “I95E mutant of the PAS-A domain of the Bacillus subtilis protein KinA (domain or fragment)”, the log(Ka) is reported as 3.96, the log(k−) (log of koff) is reported as -3.7 and the stoichiometry N is reported as 2.
